This is an account of results in patent US20200199217A1 (published 2020).

To fix the notation:
T1: hu-IL-36β (human)
T1 chain: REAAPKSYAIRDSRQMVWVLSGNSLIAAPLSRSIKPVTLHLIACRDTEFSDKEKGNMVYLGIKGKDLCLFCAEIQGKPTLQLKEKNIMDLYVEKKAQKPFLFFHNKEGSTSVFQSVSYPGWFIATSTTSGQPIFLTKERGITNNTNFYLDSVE

T2: hu-IL-36α (human, UniProt Q9UHA7 6-158)
T2 sequence: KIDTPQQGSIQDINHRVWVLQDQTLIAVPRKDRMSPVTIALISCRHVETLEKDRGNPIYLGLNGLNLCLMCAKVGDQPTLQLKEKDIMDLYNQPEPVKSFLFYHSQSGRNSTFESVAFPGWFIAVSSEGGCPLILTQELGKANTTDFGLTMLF

T3: hu-IL-36γ (human, UniProt Q9NZH8 18-169)
T3 sequence: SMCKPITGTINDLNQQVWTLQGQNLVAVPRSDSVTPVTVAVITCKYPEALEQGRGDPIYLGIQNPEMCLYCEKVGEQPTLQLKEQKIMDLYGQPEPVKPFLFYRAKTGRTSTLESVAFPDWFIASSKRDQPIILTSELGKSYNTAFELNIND

B1: mAb6.0_2.0 IgG (antibody, V domains shown)
VH: QLQLQESGPGLVKPSETLSLTCTVSGGSITSSNYYWGWIRQPPGKGLEWIGSIDYTGSTYYNPSLKSRVTISVDTSKNQFSLKLSSVTAADTAVYYCARGKYYETYLGFDVWGQGTLVTVSS
VL: QSVLTQPPSVSGAPGQRVTISCTGSSSNIGAHYDVHWYQQLPGTAPKLLIYGNDNRPSGVPDRFSGSKSGTSASLAITGLQAEDEADYYCQSYDYSLSGYVFGGGTKLTVLG
B2: mAb1.0 Fab (Fab, V domains shown)
VH: QVQLVESGGGVVQPGRSLRLSCAASGFSFSAYAMHWVRQAPGKGLEWVAVISYDGTNEYYADSVKGRFTISRDNSKNTLYLQMNSLRAEDTAVYYCARGIRIFTSYFDSWGQGTLVTVSS
VL: QSVLTQPPSVSGAPGQRVTISCTGSSSNIGAHYDVHWYQQLPGTAPKLLIYSNNNRPSGVPDRFSGSKSGTSASLAITGLQAEDEADYYCQSYDYSLRGYVFGGGTKLTVL
B3: mAb4.0 Fab (Fab, V domains shown)
VH: QLQLQESGPGLVKPSETLSLTCTVSGGSIGSRSYYWGWIRQPPGKGLEWIGSIHYSGTTYYNPSLKSRVTISVDTSKNQFSLKLSSVTAADTAVYYCARVAPSYPRVFDYWGQGTLVTVSS
VL: B2 VL with H32G, S52G, N54R, G99V
B4: mAb3.0 Fab (Fab, V domains shown)
VH: QLQLQESGPGLVKPSETLSLTCTVSGGSISSTSYYWGWIRQPPGKGLEWIGSIHYSGNTYYNPSLKSRVTISVDTSKNQFSLKLSSVTAADTAVYYCARVHYGGYIPRRFDHWGQGTLVTVSS
VL: B2 VL with H32G, S52G, N54T
B5: mAb5.0 Fab (Fab, V domains shown)
VH: EVQLLESGGGLVQPGGSLRLSCAASGFTFSTYAMSWVRQAPGKGLEWVSGISGGSGYTYYADSVKGRFTISRDNSKNTLYLQMNSLRAEDTAVYYCARVVTYRDPPASFDYWGQGTLVTVSS
VL: B2 VL with S52G, N54D, R98K, G99A
B6: mAb2.0 Fab (Fab, V domains shown)
VH: B4 VH with S31T, T32S, H54Y, S56T, H101R, G104V, Y105G, I106V, R109Y, H112P
VL: B2 VL with S52G, N54D, R98S
B7: mAb8.0 Fab (Fab, V domains shown)
VH: QVQLVQSGAEVKKPGSSVKVSCKASGGTFSNYAISWVRQAPGQGLEWMGGILPILGTVDYAQKFQGRVTITADESTSTAYMELSSLRSEDTAVYYCAREPWYRLGAFDVWGQGTLVTVSS
VL: DIQMTQSPSSLSASVGDRVTITCRASQTIYKYLNWYQQKPGKAPKLLIYAASSLQSGVPSRFSGSGSGTDFTLTISSLQPEDFATYYCQQYSSIPYTFGQGTKVEIK
B8: mAb7.0 Fab (Fab, V domains shown)
VH: QVQLVESGGGVVQPGRSLRLSCAASGFTFSSYGMHWVRQAPGKGLEWVAVISYGGSERYYADSVKGRFTISRDNSKNTLYLQMNSLRAEDTAVYYCAREPWYSSRGWTGYGFDVWGQGTLVTVSS
VL: EIVLTQSPGTLSLSPGERATLSCRASQSVSSNYLAWYQQKPGQAPKLLIYSASSLQSGVPSRFSGSGSGTDFTLTISSLQPEDFATYYCQQTYSYPPTFGQGTKVEIK
B9: mAb6.0 Fab (Fab, V domains shown)
VH: B1 VH
VL: B2 VL with H32G, S52G, N54T, Y95I, R98S, Y100W
B10: mAb1.0 IgG (antibody, V domains shown)
VH: B2 VH
VL: B2 VL
B11: mAb3.0 IgG (antibody, V domains shown)
VH: B4 VH
VL: B2 VL with H32G, S52G, N54T
B12: mAb5.0 IgG (antibody, V domains shown)
VH: B5 VH
VL: B2 VL with S52G, N54D, R98K, G99A
B13: mAb4.0 IgG (antibody, V domains shown)
VH: B3 VH
VL: B2 VL with H32G, S52G, N54R, G99V
B14: mAb8.0 IgG (antibody, V domains shown)
VH: B7 VH
VL: B7 VL
B15: mAb7.0 IgG (antibody, V domains shown)
VH: B8 VH
VL: B8 VL

Substitutions are numbered along the chain they refer to.

In the first experiment the target is T1, hu-IL-36β. Put plainly: cell-based or functional assay.
Take B1: the “fold lower potency than mAb6.0 IgG, HaCat IL-8 assay” value was 16 fold.

A further experiment concerns the target T2, hu-IL-36α. Put plainly: cell-based or functional assay.
For B2, the “% Inhibition, HEK Blue SEAP reporter assay” value (shortened to “% Inhibition”) worked out at 70%.
On to B3, for which the “% Inhibition” value stood at 91%.
For the molecule B4, the “% Inhibition” value stood at 40%.
For B5, the “% Inhibition” value came out at 75%.
With B6, the “% Inhibition” value was found to be 91%.

The target of the next experiment is T1, hu-IL-36β. Put plainly: cell-based or functional assay. This is another data set of the same source.
Consider B7, for which the “% Inhibition” value was determined as 85%.
B8: the “% Inhibition” value amounted to 84%.
In the case of B9, the “% Inhibition” value worked out at 86%.

Another experiment addresses T3, hu-IL-36γ. Put plainly: cell-based or functional assay.
For the molecule B2, the “% Inhibition” value is 31%.
In the case of B3, the “% Inhibition” value turned out to be 57%.
For the molecule B4, the “% Inhibition” value was 64%.
Consider B5, for which the “% Inhibition” value came out at 75%.
Take B6: the “% Inhibition” value stood at 89%.

A further experiment addresses T2, hu-IL-36α. Put plainly: cell-based or functional assay. The source holds these as a separate data set.
Consider B10, for which the “IC50, HEK Blue SEAP reporter assay” value is 43 nM.
B11: the “IC50, HEK Blue SEAP reporter assay” value worked out at 90 nM.
For B12, the “IC50, HEK Blue SEAP reporter assay” value came out at 95 nM.
Consider B13, for which the “IC50, HEK Blue SEAP reporter assay” value was found to be 16 nM.

The next experiment has as its target T1, hu-IL-36β. Put plainly: cell-based or functional assay. The source holds these as a separate data set.
As for B14, the “IC50, HEK Blue SEAP reporter assay” value was 0.34 nM.
Consider B15, for which the “IC50, HEK Blue SEAP reporter assay” value turned out to be 1.4 nM.

Another experiment concerns the target T3, hu-IL-36γ. Put plainly: cell-based or functional assay. This is another data set of the same source.
As to B10, the “IC50, HEK Blue SEAP reporter assay” value is 5.3 nM.
Take B11: the “IC50, HEK Blue SEAP reporter assay” value came to 30 nM.
For B12, the “IC50, HEK Blue SEAP reporter assay” value is 142 nM.
Still for that read-out and setting: under B13 stands 52 nM.
